The source of these data is the RNAGym collection of RNA variant scans (doi:10.1021/acssynbio.7b00057).

The labels stand for the following.
B1: Pistol ribozyme (parent)
chain: GGGUCGUUGUUCCAUAAUCGCGUGGAUAUGGCACGCAAGUUUCUACCGGGCACCGUAAAUGUCCGACUGGAGCCGUUCGGGCGGCUAUAAACAGACCUCAGGCCCGAAGCGUGGCGGCACCUGCCGCCGGUGGUAAAAAAGAUCGGAAGAGCACACGUCU

The variants in the data set derive from B1. The data set can be described thus: aptazyme ON/OFF ratio, guanine; higher = stronger switching; co-transcriptional cleavage with and without guanine.
For U8G G9A U11G C12A C13G, the “aptazyme ON/OFF ratio” value worked out at 1.2.
On to U8G G9C U10G U11G C13U, for which the “aptazyme ON/OFF ratio” value came to 1.12.
U8G G9C U10G U11G C13G: the “aptazyme ON/OFF ratio” value worked out at 1.12.
Take U8G G9C U10G U11G C13A: the “aptazyme ON/OFF ratio” value is 1.16.
Take U8G G9C U10A U11G C12A C13A: the “aptazyme ON/OFF ratio” value was 1.07.
As for U8G G9C U10A U11G C12A C13U, the “aptazyme ON/OFF ratio” value is 1.16.
The result for U8G G9C U10A U11G C12A C13G reads 1.14; that for U8G G9C U10A U11A C13A, 1.11.
The result for U8G G9C U10A U11A C13U reads 1.15.
Take U8G G9C U10A U11A C13G: the “aptazyme ON/OFF ratio” value is 1.04.
The result for U8G G9A U10C U11G C12U reads 1.29; that for U8G G9A U10C U11G C12G, 1.45.
For U8G G9A U10G U11G C12G C13U, the “aptazyme ON/OFF ratio” value stood at 1.37.
In the case of U8G G9A U10G U11G C12G C13G, the “aptazyme ON/OFF ratio” value is 1.44.
The result for U8G G9A U10G U11G C12G C13A reads 1.19; that for U8G G9C U10G U11A C12A, 1.17; that for U8G G9C U10G U11A C12G, 1.15.
The result for U8G G9C U10G U11A C12U reads 1.07; that for U8G G9C U10G U11C C12U, 1.03; that for U8G G9C U10G U11C C12A, 1.05.
In the case of U8G G9C U10G U11C C12G, the “aptazyme ON/OFF ratio” value stood at 1.03.
Take U8G G9C U10G U11G C12A C13A: the “aptazyme ON/OFF ratio” value came to 1.18.
Consider U8G G9C U10G U11G C12A C13U, for which the “aptazyme ON/OFF ratio” value turned out to be 1.3.
As to U8G G9C U10G U11G C12A C13G, the “aptazyme ON/OFF ratio” value is 1.15.
The result for U8G G9A U11G C12A reads 1.08; that for U8G G9A U11G C12G, 1.23; that for U8G G9A U11G C12U, 1.34.
Take U8G G9C U10A U11A C12A: the “aptazyme ON/OFF ratio” value turned out to be 1.18.
U8G G9C U10A U11A C12U: the “aptazyme ON/OFF ratio” value is 1.18.
As to U8G G9C U10A U11A C12G, the “aptazyme ON/OFF ratio” value worked out at 1.16.
For the variant U8G G9C U10G C12A C13A, the “aptazyme ON/OFF ratio” value was 1.11.
The result for U8G G9C U10G C12A C13U reads 1.15.
Turning to U8G G9C U10G C12A C13G, the “aptazyme ON/OFF ratio” value was determined as 1.09.
Regarding U8G G9C U10G U11C C13A, the “aptazyme ON/OFF ratio” value is 1.05.
With U8G G9C U10G U11C C13G, the “aptazyme ON/OFF ratio” value was determined as 1.02.
For the variant U8G G9C U10G U11C C13U, the “aptazyme ON/OFF ratio” value came out at 1.04.
The result for U8G G9C U10C U11A C12A C13A reads 1.06.
U8G G9C U10C U11A C12A C13G: the “aptazyme ON/OFF ratio” value was determined as 1.07.
On to U8G G9C U10C U11A C12A C13U, for which the “aptazyme ON/OFF ratio” value is 1.05.
For U8G G9C U10A U11G C12U C13G, the “aptazyme ON/OFF ratio” value was found to be 1.1.
In the case of U8G G9C U10A U11G C12U C13A, the “aptazyme ON/OFF ratio” value was 1.06.
U8G G9C U10A U11G C12U C13U: the “aptazyme ON/OFF ratio” value is 1.17.
The result for U8G G9A U11G C12G C13U reads 1.23.
With U8G G9A U11G C12G C13A, the “aptazyme ON/OFF ratio” value was found to be 1.27.
The result for U8G G9A U11G C12G C13G reads 1.57.
For U8G G9C U10C U11G C13A, the “aptazyme ON/OFF ratio” value was found to be 1.17.
Turning to U8G G9C U10C U11G C13U, the “aptazyme ON/OFF ratio” value was determined as 1.16.
On to U8G G9C U10C U11G C13G, for which the “aptazyme ON/OFF ratio” value stood at 1.1.
As to U8G G9A U10G C12A C13A, the “aptazyme ON/OFF ratio” value came to 1.29.
Regarding U8G G9A U10G C12A C13G, the “aptazyme ON/OFF ratio” value came to 1.18.
Consider U8G G9A U10G C12A C13U, for which the “aptazyme ON/OFF ratio” value was determined as 1.45.
With U8G G9C U10G U11G C12G C13A, the “aptazyme ON/OFF ratio” value was 1.24.
The result for U8G G9C U10G U11G C12G C13G reads 1.1; that for U8G G9C U10G U11G C12G C13U, 1.3.
Consider U8G G9A U11G C13U, for which the “aptazyme ON/OFF ratio” value amounted to 1.04.
The result for U8G G9A U11G C13A reads 1.07.
Turning to U8G G9A U11G C13G, the “aptazyme ON/OFF ratio” value worked out at 1.05.
As for U8G G9C U10C C12A C13G, the “aptazyme ON/OFF ratio” value was 1.06.
For the variant U8G G9C U10C C12A C13A, the “aptazyme ON/OFF ratio” value came to 1.05.
U8G G9C U10C C12A C13U: the “aptazyme ON/OFF ratio” value was 1.05.
U8G G9C U10C U11G C12G C13G: the “aptazyme ON/OFF ratio” value stood at 1.11.
Take U8G G9C U10C U11G C12G C13U: the “aptazyme ON/OFF ratio” value came to 1.08.
The result for U8G G9C U10C U11G C12G C13A reads 1.08; that for U8G G9C U10G U11A C12G C13A, 1.14; that for U8G G9C U10G U11A C12G C13U, 1.2.
For U8G G9C U10G U11A C12G C13G, the “aptazyme ON/OFF ratio” value was 1.29.
Consider U8G G9C U10A C12A, for which the “aptazyme ON/OFF ratio” value came out at 1.23.
As to U8G G9C U10A C12U, the “aptazyme ON/OFF ratio” value was 1.08.
Take U8G G9C U10A C12G: the “aptazyme ON/OFF ratio” value was 1.1.
The result for U8G G9C U10C U11A C12G C13U reads 1.11.
With U8G G9C U10C U11A C12G C13G, the “aptazyme ON/OFF ratio” value came to 1.1.
For U8G G9C U10C U11A C12G C13A, the “aptazyme ON/OFF ratio” value was 1.02.
With U8G G9A U11C C12G, the “aptazyme ON/OFF ratio” value came to 1.25.
For the variant U8G G9A U11C C12U, the “aptazyme ON/OFF ratio” value was found to be 1.07.
With U8G G9A U11C C12A, the “aptazyme ON/OFF ratio” value is 1.34.
In the case of U8G G9C U10C U11G C12U C13G, the “aptazyme ON/OFF ratio” value came to 1.1.
As to U8G G9C U10C U11G C12U C13U, the “aptazyme ON/OFF ratio” value was determined as 1.07.
Turning to U8G G9C U10C U11G C12U C13A, the “aptazyme ON/OFF ratio” value is 1.04.
The result for U8G G9A U10G U11C C13A reads 1.06; that for U8G G9A U10G U11C C13G, 1.05.
On to U8G G9A U10G U11C C13U, for which the “aptazyme ON/OFF ratio” value is 1.05.
In the case of U8G G9C U10C C12U C13U, the “aptazyme ON/OFF ratio” value was 1.04.
Turning to U8G G9C U10C C12U C13A, the “aptazyme ON/OFF ratio” value came out at 1.06.
U8G G9C U10C C12U C13G: the “aptazyme ON/OFF ratio” value turned out to be 1.05.
